In the supplement of paper PMC10567573:
± gives the standard deviation.

Assay: protein stability index of a GFP-peptide fusion (GPS, HEK-293T) (PSI 1-6); higher = more stable
[1] = treatment: DMSO, c terminus: a fixed tail appended
[2] = treatment: MLN4924 1 uM, 8 h, c terminus: a fixed tail appended
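Note: 24-mer peptide tiles fused after GFP, lentivirally expressed, FACS-sorted into six equal bins by GFP/DsRed ratio, decoded by Illumina sequencing, PSI is the read-weighted mean bin number.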

Sequence | protein stability index [1] | protein stability index [2] | protein stability index (treatment: DMSO, c terminus: native) | protein stability index (treatment: MLN4924 1 uM, 8 h, c terminus: native)
KEMFTVGCCVFAFLVGLLFVQRSG [SLC6A17] | 2.38 ± 0.66 | 3.13 ± 0.61 |  | 
KENREEARFQDKQYSSHHTAEKRK [CHGB] | 5.21 ± 0.41 | 4.89 ± 0.34 |  | 
KGDKCKFSHDLTLERKCEKRSVYI [ZC3H15] | 2.74 ± 0.22 | 2.63 ± 0.067 |  | 
KGHNTPKDIAHFWELGGGTSLLDL [DYNC2LI1] | 3.02 ± 0.28 | 3.2 ± 0.11 |  | 
KIGDTKRNTPIEALCENFPEEMAT [CSNK1G1] | 5.14 ± 0.2 | 5.31 ± 0.2 |  | 
KIKVRFSFFLQIYLIMIFLGLYIN [HACD3] | 3 ± 0.73 | 2.29 ± 0.96 |  | 
KIRDWYQRQAPGPARDYSQYYRTI [KRT17] | 2.19 ± 0.37 | 2.42 ± 0.31 |  | 
KKFQSEKAAGSVSKSTQFEYAWCL [FIS1] | 2.12 ± 0.22 | 2.33 ± 0.13 |  | 
KKKAIQEEEERDQALQAKASLTIP [YJU2B] | 5.27 ± 0.22 | 5.4 ± 0.21 |  | 
KKKKKQKNKKSSTGEASENGLEDI [TCF25] | 5.04 ± 0.097 | 4.49 ± 0.25 |  | 
KKKKTKKIKEKYIDQEELNKTKPI [HSP90AB1] | 4.28 ± 0.26 | 4.53 ± 0.31 |  | 
KKRRAQQAPPQDSSNKKEKKVLNH [DYRK1B] | 5.2 ± 0.32 | 5.3 ± 0.13 |  | 
KKVYLTGFALDILFAIANGFSPSY [SLC22A15] | 2.68 ± 0.28 | 3.42 ± 0.22 |  | 
KLASHTRDTTGVSQMFPSSKARTK [FBF1] | 4.39 ± 0.16 | 4.58 ± 0.053 |  | 
KLILTSSASVIFEGVDIKNGTEDL [NSDHL] | 3.13 ± 0.33 | 3.27 ± 0.22 |  | 
KLLKSMPILQGQIDALLEFDVHPN [SNAP91] | 2.12 ± 0.21 | 2.33 ± 0.17 |  | 
KLNEQSPTRCTLEAGAMTFHYIIE [SEC22B] | 2.38 ± 0.75 | 2.25 ± 0.46 |  | 
KLSFRARAYGFRGPGPQLRRGWRP [CHGA] | 3.01 ± 0.2 | 3.08 ± 0.29 |  | 
KNDVFICGGYNGEVILGDIWKLNL [KLHDC10] | 2.6 ± 0.84 | 2.33 ± 0.74 |  | 
KNKMMVCQVGGIEALVRTVLRAGD [CTNNB1] | 2.51 ± 0.45 | 2.22 ± 0.21 |  | 
KNYFQHREFSFTLKDDIYIRYQSF [PRIM1] | 2.22 ± 0.9 | 2.26 ± 0.87 |  | 
KQASNLETAIADAEQRGDNALKDA [KRT71] | 5.66 ± 0.18 | 5.62 ± 0.22 |  | 
KRKMHLVFEYCDHTLLNELERNPN [CDKL4] | 2.26 ± 0.46 | 2.51 ± 0.51 |  | 

Sequence | protein stability index [1] | protein stability index [2] | protein stability index (treatment: DMSO, c terminus: native) | protein stability index (treatment: MLN4924 1 uM, 8 h, c terminus: native)
KRRPKREKHPKKPEPQQKAPLVPP [SRPK2] | 4.948 ± 0.035 | 4.99 ± 0.19 |  | 
KRRVALSPVTENSTSLSFLDSCNS [MYBL2] | 3.65 ± 0.2 | 3.92 ± 0.34 |  | 
KSALGAMGQWQLEVGDPAPLGAGN [DPCD] | 3.98 ± 0.21 | 3.96 ± 0.27 |  | 
KSDSPTGDVLLDETLKHIKATEPT [GOLPH3L] | 5.16 ± 0.27 | 5.26 ± 0.15 |  | 
KSHVMDQAINNAINYLGAESLRPL [IKZF1] | 2.58 ± 0.24 | 2.49 ± 0.31 |  | 
KSISPWKSPPQLRQFLPEEFMKTL [DENND6A] | 2.47 ± 0.088 | 2.61 ± 0.3 |  | 
KSLSIQYLELDRLVWRNSIRSSFI [FBXO39] | 2.51 ± 0.64 | 2.28 ± 0.17 |  | 
KTESSGIETEPTVHHLPLSTEKVV [EPB41L3] | 5.21 ± 0.14 | 5 ± 0.25 |  | 
KTMQSEETRVWHRRDGKWQNVHFH [CAMK2D] | 2.85 ± 0.15 | 3.14 ± 0.16 |  | 
KTQSELASESEHIPKPQSTGWFGG [MIA2] | 3.97 ± 0.12 | 4.43 ± 0.096 |  | 
KTSLAPYVKVFEHFLENLDKSRKG [PRIM1] | 2.54 ± 0.39 | 3.12 ± 0.46 |  | 
KVMIHPDPERRPSAMALVKHSVLL [WEE1] | 2.22 ± 0.14 | 2.34 ± 0.57 |  | 
KVQNECPGITRVYSIGRSVEGRHL [CPN1] | 3.08 ± 0.22 | 3.29 ± 0.5 |  | 
KVSGNRCASPVTGPGSKRDAHFCA [ESR2] | 2.76 ± 0.44 | 2.79 ± 0.16 |  | 
KYRRHFLRFCHNNKKAKRYLLHGL [EIF5] | 2.21 ± 0.2 | 2.27 ± 0.19 |  | 
LAFKNDIQFWNSRQSLEGLSVRSV [CLPTM1] | 2.45 ± 0.18 | 2.5 ± 0.14 |  | 
LAIKAITSSAKVDMTFEEEAQLLQ [FKBP8] | 2.95 ± 0.19 | 3.29 ± 0.34 |  | 
LAMWTTALLHQAETLQPSVWFGGR [TMEM175] | 3 ± 0.56 | 2.82 ± 0.86 |  | 
LCGPHAKAPYLCEATHEPAAARIR | 3.75 ± 0.2 | 3.61 ± 0.24 |  | 
LDNTKKKMEIYQKENKDVIQKNKL [MNAT1] | 4.44 ± 0.2 | 4.34 ± 0.18 |  | 
LDPVAETAIRQLTEPSGRVAKKTP [C2CD2L] | 5.66 ± 0.17 | 5.18 ± 0.47 |  | 
LEGLNLSILKAMGKTKKDYQEASN [NECAB1] | 3.78 ± 0.14 | 3.91 ± 0.22 |  | 
LEKWMQKNVEENLYSSSLGGGVAT [GLT8D2] | 3.44 ± 0.2 | 3.69 ± 0.26 |  | 

Sequence | protein stability index [1] | protein stability index [2] | protein stability index (treatment: DMSO, c terminus: native) | protein stability index (treatment: MLN4924 1 uM, 8 h, c terminus: native)
LELLEEVLALGLRTDVGITHQHWQ [RSAD1] | 2.3 ± 0.72 | 2.13 ± 0.23 |  | 
LEQEEERLSKEWEDSKRWSKMDQL [CHGA] | 4.81 ± 0.24 | 4.73 ± 0.17 |  | 
LETNQQHFHALCHSLLVSTHVPR [M1AP] |  |  | 2.48 ± 0.43 | 3.13 ± 0.9
LEVAMEEEGLADEEKKLRRSQHAR [STK38L] | 5.43 ± 0.3 | 5.27 ± 0.35 |  | 
LEVPAGSRLNLTGLGYFSCHSHTV [CCDC3] | 2.57 ± 0.33 | 2.2 ± 0.25 |  | 
LEVSQLEGSLQQPKAQSAMSPYLV [SMG5] | 3.37 ± 0.21 | 3.46 ± 0.21 |  | 
LFGGFTTDKQPLSDAWTYCISKNE [KLHDC2] | 2.63 ± 0.47 | 2.75 ± 0.28 |  | 
LGDRDRSRAALVCRKWNQMMYSAE [FBXO39] | 2.72 ± 0.21 | 2.79 ± 0.17 |  | 
LGHMFMYFLRGSLPWQGLKADTLK [CSNK1G3] | 2.06 ± 0.26 | 2.57 ± 0.98 |  | 
LGKGAFSVVRRCVKVLAGQEYAAK [CAMK2A] | 2.61 ± 0.4 | 2.38 ± 0.61 |  | 
LGKLEATIKSLSAELLKANEIIKK [SASS6] | 2.44 ± 0.34 | 2.68 ± 0.16 |  | 
LGKPDQKDLNENLAATQGLAHMIA [DLC1] | 3.79 ± 0.12 | 3.84 ± 0.23 |  | 
LHPRPDWEHSAPQRLPRSAPPGSL [PCDHGC5] | 4.78 ± 0.19 | 4.75 ± 0.17 |  | 
LHSEFDEQHGKKVPTVSRPYSFIE [SEC22B] | 4.04 ± 0.13 | 4.14 ± 0.24 |  | 
LHVSLGQKLVAAYVLGLLTMVFLR [MOSPD3] | 3.17 ± 0.42 | 2.89 ± 0.28 |  | 
LIFFLFIGVILFSSAVYFAEADEP [KCNA4] | 2.19 ± 0.086 | 2.38 ± 0.29 |  | 
LIVPFGLLYSEVTASSLVKINLQG [ADD1] | 3.03 ± 0.47 | 2.88 ± 0.36 |  | 
LKDEEAKVLQLTVRCEALTGELET [CCDC89] | 3.86 ± 0.15 | 3.71 ± 0.25 |  | 
LKKEHPGARDGIRYLEAEFKKGNR [SMG5] | 4.35 ± 0.6 | 4.29 ± 0.24 |  | 
LKNIELFDKLALRFHGRLLFLKDV [KCTD13] | 2.66 ± 0.77 | 2.11 ± 0.15 |  | 
LKPAMTQAQDEVEQERRLSEARLS [FCHSD1] | 5.25 ± 0.18 | 5.19 ± 0.25 |  | 
LKRKNKQAFLDELESSDLPVALLL [MNAT1] | 2.2 ± 0.42 | 2 ± 0.3 |  | 
LKVGGILVMPIEDQLTQIMRTGQN [PCMTD1] | 2.66 ± 0.12 | 2.24 ± 0.22 |  | 

Sequence | protein stability index [1] | protein stability index [2] | protein stability index (treatment: DMSO, c terminus: native) | protein stability index (treatment: MLN4924 1 uM, 8 h, c terminus: native)
LLARGTMQPFNYVTLQCLAARALD [FEM1A] | 2.44 ± 0.16 | 2.22 ± 0.29 |  | 
LLDATVAGGQTRLQASDRYRDLAG [FCHSD1] | 3.99 ± 0.14 | 3.86 ± 0.12 |  | 
LLEESDGEGEPGQGEGPEAGDAEV [NOP53] | 5.62 ± 0.22 | 5.61 ± 0.14 |  | 
LLETANQTLQAMDSEDFPQAAKQI [FSD1] | 4.92 ± 0.26 | 4.79 ± 0.17 |  | 
LLLLLLTFFLRTDAETPPRFTRTP [PTPRD] | 2.32 ± 0.43 | 2.36 ± 0.49 |  | 
LLPTKSLVALKCTCCYFKFIIEYY [FBXO34] | 2.8 ± 0.59 | 2.83 ± 0.88 |  | 
LLQRELAQEDSLNKLALQYGCKVA [LYSMD4] | 2.21 ± 0.34 | 2.52 ± 0.57 |  | 
LLRDRTGQQSDTAQLELYQLQVES [SCARA5] | 4.42 ± 0.37 | 4.56 ± 0.13 |  | 
LMKESLQTGDLLSTFHTISPSFQL [PLAGL1] | 2.24 ± 0.13 | 2.17 ± 0.16 |  | 
LMKGGADLFVENMPGFPDNIRPSS [APMAP] | 3.66 ± 0.1 | 3.77 ± 0.33 |  | 
LNPHVHLVGDDAACIAYIRLTQYM [CAMK2D] | 2.32 ± 0.38 | 2.29 ± 0.66 |  | 
LNVFQTVSRMRTQRAFSIQTPEQY [PTPN9] | 2.38 ± 0.33 | 2.54 ± 0.31 |  | 
LPLSPGVLSSTPDHSFSLELGSEV [ATF4] | 3.72 ± 0.21 | 3.95 ± 0.5 |  | 
LPPCAVRNLQDLARIYIRRTLRNF [PCMTD1] | 2.06 ± 0.29 | 2.04 ± 0.26 |  | 
LPSLGCRTSCSSRPCVPPSCHGYT [KRT34] | 2.32 ± 0.26 | 2.2 ± 0.11 |  | 
LQDVIMQVADVPEKPRVPAFACQV [ZNF511] | 2.37 ± 0.28 | 2.69 ± 0.21 |  | 
LRDGGGLTPLELLLRQLGRDAGAT [ANKRD9] | 2.79 ± 0.34 | 2.58 ± 0.27 |  | 
LRGLPGERGTPGLPGPKGDDGKLG [SCARA5] | 4.96 ± 0.33 | 4.96 ± 0.19 |  | 
LRKHRELCDVVLVVGAKKIYAHRV [KLHL20] | 2.67 ± 0.5 | 2.3 ± 0.43 |  | 
LRLENSSLFSQALKDEEAKVLQLT [CCDC89] | 3.6 ± 0.41 | 3.62 ± 0.61 |  | 
